Assays:
[1] = biological target: OG488-EGR labeled Gla-domainless factor IXa (GD-FIXa) (human) (UniProt P00740); assay: fluorescence polarisation
[2] = biological target: OG488-EGR labeled wild-type factor IXa (human) (UniProt P00740); assay: fluorescence polarisation

UniProt P00740, sequence (P00740 47-191, chain 1 of 2): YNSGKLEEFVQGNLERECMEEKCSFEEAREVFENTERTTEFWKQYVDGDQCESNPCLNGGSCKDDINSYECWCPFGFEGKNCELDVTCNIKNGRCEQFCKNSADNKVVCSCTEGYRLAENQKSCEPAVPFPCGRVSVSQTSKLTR
UniProt P00740, sequence (P00740 227-461, chain 2 of 2): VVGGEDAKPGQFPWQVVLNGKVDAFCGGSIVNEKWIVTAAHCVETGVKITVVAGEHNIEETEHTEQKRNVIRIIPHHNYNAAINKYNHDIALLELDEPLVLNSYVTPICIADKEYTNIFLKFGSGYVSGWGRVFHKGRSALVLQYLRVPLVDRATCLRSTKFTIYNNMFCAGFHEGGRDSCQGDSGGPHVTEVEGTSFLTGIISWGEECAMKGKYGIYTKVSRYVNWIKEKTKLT

Kd [1]: 0.31 µM
Kd [2]: 0.0015 µM
Substance: human recombinant factor VIIIa (complex)

— PMC3511649
